In patent publication US20130130268A1 (published 2013):

Target: T1, His-tagged PDGFR alpha (aminoacids 1-834 of human PDGFR alpha fused to a 6×histidine tag) (human, UniProt P16234 24-834)
T1 construct: Complete extracellular and transmembrane regions plus part of the intracellular domain; Expressed in HeLa cells, purified from lysates and immobilized on the IAsys biosensor; The cDNA encodes residues 1-834; also called immobilized His-tagged PDGFR alpha; truncated conformer of PDGFR alpha
Assay: IAsys optical biosensor, immobilized His-tagged PDGFR alpha
Method: A detailed characterization of rHumaab interaction with human PDGFR alpha was performed on an optical biosensor, using as a molecular bait a homemade truncated conformer of this receptor containing the complete extracellular and transmembrane regions joined to a poly-histidine tail (HIS tag) replacing part of the intracellular domain, and serving both as an anchor to the biosensor surface and as a spacer. Preservation of proper folding of the immobilized receptor into a naive-like conformation was verified by monitoring the interaction with its natural binding partner (PDGF-BB) and with two mouse monoclonal antibodies specific for conformational PDGFR alpha epitopes (FIG. 6a). Using this approach, both kinetics and equilibrium parameters of the interaction between PDGF-BB, each rHumaab and PDGFR alpha were determined. […] Additionally, the analysis of association and dissociation rate constants for soluble ligands binding to PDGFR alpha, further defined the mechanistic properties of the macromolecular recognition process. […] Conversely, differences in equilibrium constants among rHumaab were reflected by corresponding differences in dissociation rate constants (kdiss=, 0.035 s⁻¹, 0.02 s⁻¹, and 0.003 s⁻¹, respectively for Vk13B8, Vk16F4 and Vlambda16F4).

T1 sequence (P16234 other isoform, or with tags, fused parts or gaps): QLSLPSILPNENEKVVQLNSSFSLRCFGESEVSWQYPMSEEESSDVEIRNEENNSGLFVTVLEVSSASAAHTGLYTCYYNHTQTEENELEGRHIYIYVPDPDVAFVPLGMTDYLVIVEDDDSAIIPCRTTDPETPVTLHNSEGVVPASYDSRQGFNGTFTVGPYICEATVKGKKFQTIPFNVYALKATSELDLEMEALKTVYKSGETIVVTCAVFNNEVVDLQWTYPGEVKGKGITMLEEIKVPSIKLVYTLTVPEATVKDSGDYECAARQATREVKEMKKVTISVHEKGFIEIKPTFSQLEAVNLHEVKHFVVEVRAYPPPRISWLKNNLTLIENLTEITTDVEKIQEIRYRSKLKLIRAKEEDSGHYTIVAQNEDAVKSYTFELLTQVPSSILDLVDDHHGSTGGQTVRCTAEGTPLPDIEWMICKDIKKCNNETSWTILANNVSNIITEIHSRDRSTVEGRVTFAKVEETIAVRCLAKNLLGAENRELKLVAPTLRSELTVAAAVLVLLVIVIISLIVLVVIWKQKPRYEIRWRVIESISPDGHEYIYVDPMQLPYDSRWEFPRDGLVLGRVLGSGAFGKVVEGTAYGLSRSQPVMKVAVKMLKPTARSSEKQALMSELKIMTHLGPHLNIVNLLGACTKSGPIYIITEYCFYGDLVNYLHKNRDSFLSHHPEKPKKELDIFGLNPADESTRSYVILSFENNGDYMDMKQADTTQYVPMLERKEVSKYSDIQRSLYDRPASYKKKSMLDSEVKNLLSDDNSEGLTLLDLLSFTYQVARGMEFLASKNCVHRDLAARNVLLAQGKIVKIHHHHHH

B1: human PDGF-BB (ligand)
chain 1: SLGSLTIAEPAMIAECKTRTEVFEISRRLIDRTNANFLVWPPCVEVQRCSGCCNNRNVQCRPTQVQLRPVQVRKIEIVRKKPIFKKATVTLEDHLACKCETVAAARPVT
chain 2: SLGSLTIAEPAMIAECKTRTEVFEISRRLIDRTNANFLVWPPCVEVQRCSGCCNNRNVQCRPTQVQLRPVQVRKIEIVRKKPIFKKATVTLEDHLACKCETVAAARPVT
notes: The name BB means a homodimer of B chains
  Kd: 0.23 nM
  kon: 3e+07 M⁻¹ s⁻¹

B2: Vlambda16F4 rHumaab (antibody, human IgG1, V domains shown)
VH: GLVKPLETLSLTCSVSGGSVSDGSYFWNWIRQPPGKGLEWIGYAYSRGTTNYSPSLKGRITISVDKSKNQISLKLTSVTPADTAVYYCARDSFEIWGQGTMVTV
VL: QSALTQPASVSGSPGQSITISCTGTSSDVGGYNYVSWYQHHPGKAPKLMIYEVSHRPSGVSNRFSGSKSGNTASLTISGLQAEDEADYYCSSYTSSSHVVFGGGTKLTVL
notes: Tested as a whole human IgG1 made in CHO cells (pDR12 vector, b12 constant regions, with Fc)
  Kd: 16.6 nM
  koff: 0.003 s⁻¹

B3: Vk13B8 rHumaab (antibody, human IgG1, V domains shown)
VH: GLVKPLETLSLTCSVSGGSVSDGSYFWNWIRQPPGKGLEWIGYAYSRGTTNYSPSLKGRITISVDKSKNQISLKLTSVTPADTAVYYCARDSFEIWGQGTMVTV
VL: DIQMTQSPSSLSASVGDRVTITCRASQGISNYLAWFQQKPGKAPKSLIYAASSLQSGVPSKFSGSGSGTDFTLTISSLQPEDFATYYCQQYNSFPYTFGQGTKLEIK
notes: Tested as a whole human IgG1 made in CHO cells (pDR12 vector, constant regions of antibody b12, with Fc); also called Vκ13B8; recombinant human monoclonal auto-antibody Vk13B8
  Kd: 184 nM
  koff: 0.035 s⁻¹

B4: Vk16F4 rHumaab (antibody, human IgG1, V domains shown)
VH: GLVKPLETLSLTCSVSGGSVSDGSYFWNWIRQPPGKGLEWIGYAYSRGTTNYSPSLKGRITISVDKSKNQISLKLTSVTPADTAVYYCARDSFEIWGQGTMVTV
VL: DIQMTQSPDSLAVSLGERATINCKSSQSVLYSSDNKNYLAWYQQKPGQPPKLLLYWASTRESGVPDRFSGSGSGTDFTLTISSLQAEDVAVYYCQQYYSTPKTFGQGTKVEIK
notes: Tested as a whole human IgG1 made in CHO cells (pDR12 vector, b12 constant regions, with Fc); also called Vκ16F4; rHumaab VK16F4
  Kd: 71.4 nM
  koff: 0.02 s⁻¹
